Reference: patent publication US6521458

Biological target: barnase (UniProt P00648)
Experiment: cell-based or functional assay

Chain of UniProt P00648 (P00648 48-157 limits assumed): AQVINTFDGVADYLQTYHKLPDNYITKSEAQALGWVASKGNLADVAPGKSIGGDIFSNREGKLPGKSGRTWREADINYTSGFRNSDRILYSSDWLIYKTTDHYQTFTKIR

barstar (from UniProt P11540 2-90)
percent LUC positive shoots from barstar5 explants transformed with pBH700 (against 15% from wild type explants without barstar): 46%
